Assay results: publication PMC12823420

Assays:
[1] = target: UAP56-UCM-1-N-UBM fusion (Homo sapiens) (UniProt Q13838+P82979+Q86V81); experiment: GCI; conditions: 1 mM ATP, RNA immobilized, GCI: 25 mM HEPES pH 7.9, 50 mM KCl, 1 mM MgCl2, 1 mM TCEP, 25 C, AdML pull-down: 20 mM HEPES pH 7.9, 100 mM KCl, 2 mM MgCl2, 5% glycerol, 0.1% …
[2] = target: UAP56;SARNP (Homo sapiens;Homo sapiens) (UniProt Q13838); experiment: pull-down; conditions: 1 mM AMP-PNP; UAP56 bound with SARNP set to 100%; GCI: 25 mM HEPES pH 7.9, 50 mM KCl, 1 mM MgCl2, 1 mM TCEP, 1 mM ATP, 25 C; AdML pull-down: 20 mM HEPES pH 7.9, 100 mM KCl, 2 mM MgCl2, 5% glycerol, 0.1% …
[3] = target: the THO complex (recombinant, surface-immobilized; tetramer, dimer or monomer, not told apart in the sentence); experiment: grating-coupled interferometry (GCI); V5-tagged THO complex captured on an anti-V5 chip; UAP56 injected in a 1:2 series from 5 μM, alone or with only 1 mM ATP or only 200 μM 15 U RNA; 25 mM HEPES pH 7.9, 50 mM KCl, 1 mM MgCl2, 1 mM TCEP, 25 °C; one-to-one model
[4] = target: ALYREF N-UBM peptide, biotinylated (human); experiment: grating-coupled interferometry (GCI); biotinylated UBM or UCM peptides captured on a streptavidin chip; UAP56 injected; 25 mM HEPES pH 7.9, 50 mM KCl, 1 mM MgCl2, 1 mM TCEP, 25 °C; one-to-one model; UCM peptides also with AMP-PNP or AMP-PNP and 15 U RNA

UUUUUUUUUUUUUUU [15U RNA]
Kd [1]: 120 nM

AdML RNA with MS2 loops, 450 nt
binding signal [2]: 100%

UAP56 (from UniProt Q13838 1-428) (enzyme)
Kd [3]: 240 to 390 nM
Kd [4]: 28000 nM
